Laboratory results as given in the supplement of paper PMC7877785.
± gives the uncertainty stated by the source.

Assay: self-splicing fitness, log relative to wild type (ln ratio); higher = more splicing; Tetrahymena group I intron in knt gene, E. coli kanamycin selection, DiMSum; sequences stand for … in CUCUCU…GGAGGGAAAAGUUAUCAGGCAUGCACCUGGUAGCUAGUCUUUAAACCAAUAGAUUGCAUCGGUUUAAAAGGCAAGACCGUCAAAUUGCGGGAAAGGGGUCAACAGCCGUUCAGUACCAAGUCUCAGGGGAAACUUUGAGAUGGCCUUGCAAAGGGUAUGGUAAUAAGCUGACGGACAUGGUCCUAACCACGCAGCCAAGUCCUAAGUCAACAGAUCUUCUGUUGAUAUGGAUGCAGUUCACAGACUAAAUGUCGGUCGGGGAAGAUGUAUUCUUCUCAUAAGAUAUAGUCGGACCUCUCCUUAAUGGGAGCUAGCGGAUGAAGUGAUGCAACACUGGAGCCGCUGGGAACUAAUUUGUAUGCGAAAGUAUAUUGAUUAGUUUUGGAGUACUCGUGGUCG
How it was run: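 DiMSum derived fitness as the error-weighted combination of fold changes across replicates, kanamycin versus no kanamycin, normalised to wild type. E. coli BL21(DE3) held the library, which randomised all eight P1ex-region intron nucleotides within the knt kanamycin-resistance gene on pET-22b(+). Six replicate transformations grew overnight at 37°C or 30°C on LB agar with or without 25 μg/mL kanamycin, also containing 100 μg/mL carbenicillin, 50 μM IPTG and 0.2% rhamnose, and pooled colonies were amplicon-sequenced on an Illumina HiSeq 2500.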

UUACAGCAAUAUUACGUCCA
self-splicing fitness (ln) (30 °C): -0.325 ± 0.096 | self-splicing fitness (ln) (37 °C): -0.181 ± 0.11

UCAAAGCAAUAUUACGACUC
self-splicing fitness (ln) (30 °C): -2.99 ± 0.38 | self-splicing fitness (ln) (37 °C): -0.37 ± 0.23

CGAGAGCAAUAUUACGCUAA
self-splicing fitness (ln) (30 °C): -2.68 ± 0.33

GUUCAGCAAUAUUACGCACU
self-splicing fitness (ln) (30 °C): -0.633 ± 0.085 | self-splicing fitness (ln) (37 °C): 0.537 ± 0.12

UGUGAGCAAUAUUACGGCUU
self-splicing fitness (ln) (30 °C): -2.85 ± 0.27 | self-splicing fitness (ln) (37 °C): -1.81 ± 0.23

AGGUAGCAAUAUUACGUACC
self-splicing fitness (ln) (30 °C): -1.99 ± 0.028 | self-splicing fitness (ln) (37 °C): -1.14 ± 0.042

GAGAAGCAAUAUUACGCUAG
self-splicing fitness (ln) (30 °C): -1.66 ± 0.12 | self-splicing fitness (ln) (37 °C): -0.805 ± 0.15

GUCUAGCAAUAUUACGGAAA
self-splicing fitness (ln) (30 °C): -0.658 ± 0.12 | self-splicing fitness (ln) (37 °C): -0.44 ± 0.12

GCCUAGCAAUAUUACGGACC
self-splicing fitness (ln) (30 °C): -1.6 ± 0.19 | self-splicing fitness (ln) (37 °C): -1.31 ± 0.28

GUCUAGCAAUAUUACGAAGC
self-splicing fitness (ln) (30 °C): -1.58 ± 0.18 | self-splicing fitness (ln) (37 °C): -0.814 ± 0.18

GCGAAGCAAUAUUACGAACC
self-splicing fitness (ln) (30 °C): -1.67 ± 0.13 | self-splicing fitness (ln) (37 °C): -1.06 ± 0.15

CUCGAGCAAUAUUACGCUUC
self-splicing fitness (ln) (30 °C): -3.71 ± 0.3 | self-splicing fitness (ln) (37 °C): -2.24 ± 0.29

GUUGAGCAAUAUUACGCUCG
self-splicing fitness (ln) (30 °C): -2.49 ± 0.16 | self-splicing fitness (ln) (37 °C): -2.34 ± 0.3

GCCAAGCAAUAUUACGGGAC
self-splicing fitness (ln) (30 °C): -3.02 ± 0.15 | self-splicing fitness (ln) (37 °C): -0.694 ± 0.099

UUCGAGCAAUAUUACGCAAU
self-splicing fitness (ln) (37 °C): -2.13 ± 0.43

GAGAAGCAAUAUUACGCUUU
self-splicing fitness (ln) (30 °C): -3.35 ± 0.14 | self-splicing fitness (ln) (37 °C): -2.76 ± 0.14

ACUCAGCAAUAUUACGACAG
self-splicing fitness (ln) (30 °C): -1.94 ± 0.11 | self-splicing fitness (ln) (37 °C): -0.382 ± 0.12

ACCUAGCAAUAUUACGAACG
self-splicing fitness (ln) (30 °C): -1.25 ± 0.12 | self-splicing fitness (ln) (37 °C): -1.07 ± 0.19

AUACAGCAAUAUUACGUAAC
self-splicing fitness (ln) (30 °C): -3.13 ± 0.11 | self-splicing fitness (ln) (37 °C): -1.25 ± 0.077

AGACAGCAAUAUUACGCGCC
self-splicing fitness (ln) (30 °C): -0.399 ± 0.14 | self-splicing fitness (ln) (37 °C): -0.637 ± 0.12

GUUCAGCAAUAUUACGUUCA
self-splicing fitness (ln) (30 °C): -0.741 ± 0.12 | self-splicing fitness (ln) (37 °C): -0.425 ± 0.13

CCCUAGCAAUAUUACGUUGC
self-splicing fitness (ln) (30 °C): -3.75 ± 0.29 | self-splicing fitness (ln) (37 °C): -1.82 ± 0.18

CUCGAGCAAUAUUACGUAUA
self-splicing fitness (ln) (37 °C): -2.29 ± 0.31

UGCCAGCAAUAUUACGUGGG
self-splicing fitness (ln) (30 °C): -3.88 ± 0.13 | self-splicing fitness (ln) (37 °C): -2.74 ± 0.14

ACAGAGCAAUAUUACGAAAA
self-splicing fitness (ln) (37 °C): -3.05 ± 0.4

GUUUAGCAAUAUUACGGCUC
self-splicing fitness (ln) (30 °C): 0.0411 ± 0.094 | self-splicing fitness (ln) (37 °C): 0.193 ± 0.12

GCCUAGCAAUAUUACGGUUA
self-splicing fitness (ln) (30 °C): -1.47 ± 0.11 | self-splicing fitness (ln) (37 °C): -0.443 ± 0.091

UUCGAGCAAUAUUACGGUGG
self-splicing fitness (ln) (30 °C): -3.36 ± 0.27 | self-splicing fitness (ln) (37 °C): -1.07 ± 0.19

GAGUAGCAAUAUUACGUGCC
self-splicing fitness (ln) (30 °C): -1.79 ± 0.23 | self-splicing fitness (ln) (37 °C): -0.846 ± 0.18

CGGGAGCAAUAUUACGGCGG
self-splicing fitness (ln) (30 °C): -1.17 ± 0.11 | self-splicing fitness (ln) (37 °C): -1.09 ± 0.19

UGCAAGCAAUAUUACGAACU
self-splicing fitness (ln) (30 °C): -0.489 ± 0.14 | self-splicing fitness (ln) (37 °C): 0.0308 ± 0.12

AAAAAGCAAUAUUACGCAUU
self-splicing fitness (ln) (30 °C): -2.5 ± 0.1 | self-splicing fitness (ln) (37 °C): -1.8 ± 0.11

AAGCAGCAAUAUUACGAGUC
self-splicing fitness (ln) (30 °C): -4.83 ± 0.32 | self-splicing fitness (ln) (37 °C): -1.87 ± 0.18

CAAAAGCAAUAUUACGAGGC
self-splicing fitness (ln) (30 °C): -4.77 ± 0.39 | self-splicing fitness (ln) (37 °C): -2.34 ± 0.18

AGCAAGCAAUAUUACGUCAA
self-splicing fitness (ln) (30 °C): -1.76 ± 0.13 | self-splicing fitness (ln) (37 °C): -1.13 ± 0.11

GGUAAGCAAUAUUACGCCUA
self-splicing fitness (ln) (30 °C): -0.917 ± 0.088 | self-splicing fitness (ln) (37 °C): -0.737 ± 0.091

UCAUAGCAAUAUUACGUCGU
self-splicing fitness (ln) (30 °C): -3.88 ± 0.39 | self-splicing fitness (ln) (37 °C): -1.79 ± 0.38

GAGCAGCAAUAUUACGCUGC
self-splicing fitness (ln) (30 °C): -3.72 ± 0.18 | self-splicing fitness (ln) (37 °C): -3.06 ± 0.27
